± gives the standard deviation of the averaged measurements.
Tested on: ATP
Experiment: switch fluorescence ratio, 500 uM ATP over buffer (Cy3 cluster intensity, sum of 5 cycles each) (fold (ratio)); higher = stronger signal-on switching upon ATP binding; sequences stand for … in TCGTCGGCAGCGTCAGATGTGTATAAGAGACAGTTTTTTTTTTTTTTTTTTTTTTTTT…TC
Details: aptamer strand: ATP DNA aptamer (quencher-CACCTGGGGGAGTATTGCGGAGGAAGG + anchor), 100 nM annealed; ATP concentration: 500 uM
Outline: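 Values give the fluorescence ratio for each switch-domain sequence, averaged from per-cluster ratios of summed target-cycle to summed buffer-cycle Cy3 intensity. The Cy3-labelled switching-strand clusters sat on a modified Illumina MiSeq flow-cell, were annealed to 100 nM quencher-labelled ATP aptamer, and were imaged in selection buffer, then after 15 min with 500 uM ATP at 22 °C. Five cycles ran with NaOH stripping and re-annealing between them, and clusters outside 100-1000 RFU were excluded.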
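Note: ATP exposure 15 min at 22 °C before imaging.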

GAGCTATCAC
switch fluorescence ratio: 1.16 ± 0.035

GTTTTTGCCA
switch fluorescence ratio: 1.01 ± 0.016

TGGGATAGAG
switch fluorescence ratio: 1 ± 0.021

TATGTGAACT
switch fluorescence ratio: 0.9986 ± 0.0019

GGAAATTGTA
switch fluorescence ratio: 0.986 ± 0.0059

TTTGTTTGGC
switch fluorescence ratio: 0.983 ± 0.019

AATTTACGAT
switch fluorescence ratio: 1.02 ± 0.014

ATTGCATTCA
switch fluorescence ratio: 0.9949 ± 0.0041

ATTGATGATA
switch fluorescence ratio: 1.018 ± 0.0092

TTGTCCGTAG
switch fluorescence ratio: 1.0583 ± 0.00024

TGACTTGGGG
switch fluorescence ratio: 0.995 ± 0.033

GAATGTAGCA
switch fluorescence ratio: 1.03 ± 0.011

AATAAGTTTT
switch fluorescence ratio: 0.969 ± 0.037

TACCTTGGGC
switch fluorescence ratio: 1.04 ± 0.046

TTAGATTTAA
switch fluorescence ratio: 0.998 ± 0.013

GCCACACTAG
switch fluorescence ratio: 1.06 ± 0.032

TCGTTGGCAA
switch fluorescence ratio: 2.3 ± 0.23

AAAGTCTATT
switch fluorescence ratio: 0.99 ± 0.02

AGTGGGAACC
switch fluorescence ratio: 0.998 ± 0.025

GGGCCTGAAA
switch fluorescence ratio: 1.08 ± 0.093

TCTTTGGGGA
switch fluorescence ratio: 1.04 ± 0.04

AGGTAGGGCA
switch fluorescence ratio: 0.9762 ± 0.0049

CTCATCGGCT
switch fluorescence ratio: 1.03 ± 0.03

AATTTTTCGG
switch fluorescence ratio: 0.994 ± 0.042

CGTAGTTCGT
switch fluorescence ratio: 1.036 ± 0.0046

GGGTATGTGT
switch fluorescence ratio: 0.986 ± 0.015

GGAGTCAGCG
switch fluorescence ratio: 0.977 ± 0.025

CGTTTTTTAT
switch fluorescence ratio: 1.02 ± 0.031

TAAATAAATT
switch fluorescence ratio: 1.01 ± 0.044

AGTGGGGCGC
switch fluorescence ratio: 1.29 ± 0.4

GTATATAAGT
switch fluorescence ratio: 0.98 ± 0.013

AAAGTACCCG
switch fluorescence ratio: 1.07 ± 0.04

CATGAGTTGG
switch fluorescence ratio: 0.966 ± 0.041

TCGGCGTGGG
switch fluorescence ratio: 1.01 ± 0.025

GTTTCAACTG
switch fluorescence ratio: 1 ± 0.12

TGATTTTCTC
switch fluorescence ratio: 1.01 ± 0.048

TTTTGATTAT
switch fluorescence ratio: 0.978 ± 0.034

CTTAAAAATT
switch fluorescence ratio: 0.9777 ± 0.0031

TAGGGTGGGG
switch fluorescence ratio: 0.99 ± 0.072

TTTCGATTGT
switch fluorescence ratio: 0.988 ± 0.024

ATTTCTTTCA
switch fluorescence ratio: 1.02 ± 0.033

TGTGATCGAC
switch fluorescence ratio: 1.01 ± 0.018

AGGGCAAGTT
switch fluorescence ratio: 1.01 ± 0.064

TGCGACATGT
switch fluorescence ratio: 0.969 ± 0.027

AGGTTTGCAA
switch fluorescence ratio: 1.04 ± 0.028

ACAAAAGGGG
switch fluorescence ratio: 1.16 ± 0.22

TGGAGGGGAG
switch fluorescence ratio: 0.9858 ± 0.0062

TTTTTTAGTT
switch fluorescence ratio: 0.992 ± 0.025

CTCGCAGGAA
switch fluorescence ratio: 1.75 ± 0.078

GCGGGTAGCA
switch fluorescence ratio: 1.04 ± 0.029

CGTGGTGGAG
switch fluorescence ratio: 1 ± 0.045

AGTTAGCAGA
switch fluorescence ratio: 0.995 ± 0.026

ACTTGGGGTG
switch fluorescence ratio: 1.04 ± 0.013

CTGGTTTGCC
switch fluorescence ratio: 0.974 ± 0.048

ATTTGGAATT
switch fluorescence ratio: 1 ± 0.027

TATTTGTGGG
switch fluorescence ratio: 0.9845 ± 0.0083

GTGGACGG
switch fluorescence ratio: 0.9733 ± 0.0022

ATGGTTTACG
switch fluorescence ratio: 1.05 ± 0.077

TATTCAATTT
switch fluorescence ratio: 1 ± 0.021

TGTTTTTATC
switch fluorescence ratio: 0.992 ± 0.013

AACATAGGTC
switch fluorescence ratio: 1.06 ± 0.04

AAGATATAGA
switch fluorescence ratio: 1.014 ± 0.0027

TAAGATTGTT
switch fluorescence ratio: 1.02 ± 0.017

TAGGTGGGGC
switch fluorescence ratio: 0.996 ± 0.03

CTCGGGACTT
switch fluorescence ratio: 0.9884 ± 0.0024

TTTTCTGACC
switch fluorescence ratio: 1.02 ± 0.012

TTAACTAGGC
switch fluorescence ratio: 0.989 ± 0.054

TTTTGGAGTT
switch fluorescence ratio: 0.998 ± 0.035

CGGGTGGGTA
switch fluorescence ratio: 1 ± 0.023

AACTAGGCGC
switch fluorescence ratio: 0.9875 ± 0.0065

TCGAAAATGT
switch fluorescence ratio: 1.01 ± 0.081

TTCGGCCACG
switch fluorescence ratio: 1.01 ± 0.036

TTTAGAAAGT
switch fluorescence ratio: 1.028 ± 0.0052

TATTTGGTTT
switch fluorescence ratio: 1 ± 0.017

TTTGATGTAA
switch fluorescence ratio: 1.01 ± 0.026

ACATTAGTAG
switch fluorescence ratio: 1.02 ± 0.033

TATATGATGG
switch fluorescence ratio: 0.982 ± 0.024

CGTTCCATTG
switch fluorescence ratio: 1 ± 0.012

AAAGGTGGCA
switch fluorescence ratio: 1 ± 0.017

TAGAGTCTTT
switch fluorescence ratio: 0.994 ± 0.013

CAATTAACGG
switch fluorescence ratio: 1.04 ± 0.027

ATTTCGGTCT
switch fluorescence ratio: 0.9892 ± 0.0049

CTTGTTTCTC
switch fluorescence ratio: 0.971 ± 0.028

AATGCCTGGT
switch fluorescence ratio: 0.984 ± 0.022

CAGGTGGTTG
switch fluorescence ratio: 1.01 ± 0.035

TAAGTGAGGT
switch fluorescence ratio: 0.99677 ± 0.00077

AGCACGGGGG
switch fluorescence ratio: 1.19 ± 0.28

ATGAGAGGTT
switch fluorescence ratio: 0.994 ± 0.049

GGGGGGGTCA
switch fluorescence ratio: 0.994 ± 0.027

TAGCGGGCGT
switch fluorescence ratio: 0.964 ± 0.026

GCTCAAGCCT
switch fluorescence ratio: 1.06 ± 0.028

TAGTTCGGTG
switch fluorescence ratio: 0.988 ± 0.042

AAATTGTGTG
switch fluorescence ratio: 0.999 ± 0.0037

TGGGAAAATG
switch fluorescence ratio: 1.018 ± 0.0069

AGGACGTTGG
switch fluorescence ratio: 0.963 ± 0.034

GCGCGCGATT
switch fluorescence ratio: 0.997 ± 0.025

GTGTATCCGT
switch fluorescence ratio: 0.994 ± 0.018

TTTGGGCGGG
switch fluorescence ratio: 1.01 ± 0.033

AATAAAATT
switch fluorescence ratio: 1.03 ± 0.076

GCGGTGGGTT
switch fluorescence ratio: 0.9862 ± 0.0096

CAACCTGGGA
switch fluorescence ratio: 1.022 ± 0.0017

GATTATAGTA
switch fluorescence ratio: 0.952 ± 0.027

TTAGGTGTTA
switch fluorescence ratio: 1.03 ± 0.022

TTTGCGGACC
switch fluorescence ratio: 1.05 ± 0.025

TTAAATGGGT
switch fluorescence ratio: 1 ± 0.033

AGTTTTGTGT
switch fluorescence ratio: 0.972 ± 0.0098

ATGTTATTGG
switch fluorescence ratio: 0.967 ± 0.033

ATTAGGATTG
switch fluorescence ratio: 1 ± 0.053

GGGGATGCGA
switch fluorescence ratio: 1.09 ± 0.1

ATCTCGCAGG
switch fluorescence ratio: 1.08 ± 0.031

AGCTTGTCGG
switch fluorescence ratio: 1.01 ± 0.025

ATATCTAGCC
switch fluorescence ratio: 0.9611 ± 0.0042

CGTCAGGTGT
switch fluorescence ratio: 3.713 ± 0.012

TAGGGGTCCA
switch fluorescence ratio: 0.987 ± 0.018

GTGGGGAGTC
switch fluorescence ratio: 0.992 ± 0.015

ACTGGGGAGC
switch fluorescence ratio: 0.985 ± 0.0078

GGGTATAGGT
switch fluorescence ratio: 0.999 ± 0.016

CGGGTTCTGG
switch fluorescence ratio: 0.989 ± 0.014

TGGGTGTTAA
switch fluorescence ratio: 0.974 ± 0.055

AGTGTAGGGA
switch fluorescence ratio: 1.01 ± 0.029

TTGATGCGGT
switch fluorescence ratio: 1.04 ± 0.042

TAAGGAGTTT
switch fluorescence ratio: 0.972 ± 0.016

GGGATGCAGA
switch fluorescence ratio: 1.05 ± 0.0076

GGCGTCGTAT
switch fluorescence ratio: 0.9961 ± 0.0015

GCTATTAGGA
switch fluorescence ratio: 0.984 ± 0.033

AAATTGCTGT
switch fluorescence ratio: 1.012 ± 0.0069

CCGGCGGAAG
switch fluorescence ratio: 1.003 ± 0.0011

GGGGAGGTCG
switch fluorescence ratio: 1.03 ± 0.02

TCAGAGGGGG
switch fluorescence ratio: 0.992 ± 0.036

TGGGGTGCAT
switch fluorescence ratio: 0.993 ± 0.051

CACTGGAAAA
switch fluorescence ratio: 1.04 ± 0.036

ATTCTTTTGG
switch fluorescence ratio: 0.9726 ± 0.0041

ATCACGGGAA
switch fluorescence ratio: 1.055 ± 0.0074

TACTTTAGGG
switch fluorescence ratio: 1.04 ± 0.024

TTTCGAATAA
switch fluorescence ratio: 0.986 ± 0.0099

GAATATATTT
switch fluorescence ratio: 0.993 ± 0.019

ACTTTCCACA
switch fluorescence ratio: 1.17 ± 0.027

TTAAAGAAAT
switch fluorescence ratio: 1.05 ± 0.091

GACTTTTATA
switch fluorescence ratio: 0.996 ± 0.026

GGGGTTGGGG
switch fluorescence ratio: 0.994 ± 0.031

GCTGCGGGCT
switch fluorescence ratio: 1.18 ± 0.24

TACATGTCCG
switch fluorescence ratio: 1.05 ± 0.064

TTGGGACAGC
switch fluorescence ratio: 1.003 ± 0.0014

AGGGAAGAAC
switch fluorescence ratio: 1.006 ± 0.0073

TCGAGGGGGG
switch fluorescence ratio: 1.05 ± 0.096

AAGGCCTTCG
switch fluorescence ratio: 1.12 ± 0.021

AAGTGGGGTA
switch fluorescence ratio: 1.03 ± 0.022

GGGAAGAACC
switch fluorescence ratio: 1.02 ± 0.013

AGGGGCGGGA
switch fluorescence ratio: 0.962 ± 0.041

GGGGTCTGGG
switch fluorescence ratio: 0.966 ± 0.016

TAATTTAGTG
switch fluorescence ratio: 0.9858 ± 0.0056

TCGTTAGAAG
switch fluorescence ratio: 0.9966 ± 0.0052

GTGATAGGGG
switch fluorescence ratio: 0.994 ± 0.053

CGTGTAAGTA
switch fluorescence ratio: 1.011 ± 0.0044

CAACCGGTTG
switch fluorescence ratio: 0.984 ± 0.017

ATTCTAGTAT
switch fluorescence ratio: 0.962 ± 0.026

ACATCCTACT
switch fluorescence ratio: 1.15 ± 0.041

Reference: the supplement of paper PMC10126150
